Numbering of substitutions follows the chain as printed.
B1: NBX17019 (VHH)
VHH: QVQLQESGGGLVQAGGSLRLSCTGPGSTFSSYAVGWYRQAPGGNREWVASISSSGEITRYADSVTGRFTISRDNAKNTVDLQMNSLRPEDTAVYYCAIGTMARGKGTLVTVSS
B2: NBX17024 (VHH)
VHH: QVQLQESGPGLVKPSQTLSLTCTVSGGSITTSYSTWSWIRQPPGKGLEWMGVIADDGSAEYSPSLKSRTSISLDTSKNQFSLQLSSVTPEDTAVYYCARRGGAWGSNWWAYHMDDWGKGTLVTVSS
B3: NBX17020 (VHH)
VHH: QVQLQQSGGGLVQAGGSLRLSCAGSGRPFGSYVMGWYRQAPGEQREMVARMTSAGSGGVADYGESVKGRFAISRDYAKNMVFLQMNSLKPEDTAVYYCWSALGYWGQGTQVTVSS
B4: NBX0726 (VHH)
VHH: QVQLQQSGGGLVQAGGSVRLSCTANGLTFGNYAMAWFRRTPGKERAFVGGMSASGAGTYYLDSVKGRFTISRDTAKNTVYLEMNSLKAEDTAVYYCAANSIYPGRRWASYDYWGQGTQVTVSS
B5: NBX0727 (VHH)
VHH: QVQLQQSGGGLVQAGGSVRLSCAASGLTLGNYALAWFRRTPGKEREFVAGMSGSGAGTYYLDSVNGRFTISRDNAKNTLYLQMNSLKAEDTAVYYCAANSIYPGRRWASYDYWGQGTQVTVSS
B6: NBX0749 (VHH)
VHH: QVQLQESGGGLVQAGGSLRLSCATSGSIFSRDTMAWYRQVPGEQRELVAYITNFGGTNHADSVKGRFTISRDNAKNTVYLQMNSLKPEDTAVYYCAAGLLSLRTHTWEYWGQGTQVTVSS
B7: NBX0728 (VHH)
VHH: B6 VHH with T24A, G26A, I51V, G98D, L100I
B8: NBX0748 (VHH)
VHH: B6 VHH with A23V, T24A, T104S, Y109L
B9: NBX0716 (VHH)
VHH: QVQLQESGGGLVQAGGSLSLSCTASGRTFSTFPVAWFRQAPGKEREFVARINWFTTDTYYADSVKGRFTISRDSAKNTVYLQMNALKPEDTAIYYCAAARSNTGTSRFDYWGQGTQVTVSS
B10: NBX0711 (VHH)
VHH: QVQLQQSGGGLVQPGGSLRLSCAASRSIRSADAMAWYRQAPGKQRVWVATITSGGSTYYTDSVKGRFTISRDNAKSTVYLQMSSLKPEDTAVYYCNAVGDRTSYWGQGTQVTVAS
B11: NBX0733 (VHH)
VHH: QVQLQQSGGGLVQPGGSLRLSCAASGSIFSVDAMAWYRQAPGKQREWVATFTKGGSTYYAGSVKGRFTISRDNAKNTVYLQMSSLKPEDTAVYYCNAVGDRTGAWGQGTQVTVAS
B12: NBX0710 (VHH)
VHH: QVQLQESGGGLVQAGGSLRLSCAASGSIFSINAMGWYRQAPGKQRELVAGITSGGSTNYADSVKGRFTISRDNAKNTVYLQMNSLKPEDTAVYYCAADYVGLGDDAFYVPYWGQGTQVTVSA
B13: NBX0740 (VHH)
VHH: QVQLQESGGGLVQAGGSLRLSCAASGRTFVNYNMGWFRQAPGKEREFVATINWSGGSTYYAGSVKGRFTISRDSAKNTVYLQMNKLKPEDTAVYYCAAEVGYGYQGPPLTTPSMYDYWGQGTQVTVST
B14: NBX0717 (VHH)
VHH: QVQLQESGGGLVQAGGSLRLSCAASTNIATFTTMGWYRQAPGKERELVATTTPWGATTSYADSVKGRFTISNDNAKNTVNLQMNSLKPEDTAVYYCNAQQDIPTTQTYWGQGTQVTVSS
B15: NBX0707 (VHH)
VHH: B6 VHH with T24A, Y50F, L100V
B16: NBX0714 (VHH)
VHH: B6 VHH with T24A, D61G, G98E, L100V
B17: NBX0734 (VHH)
VHH: B6 VHH with T24A, D89E, L100V
B18: NBX0731 (VHH)
VHH: B6 VHH with A14P, L20V, T24A, S27F, I28T, L100V
B19: NBX0709 (VHH)
VHH: B6 VHH with T24A, L100V, R103H
B20: NBX0752 (VHH)
VHH: B6 VHH with T24A, T33N, Y50L, L100V, R103L
B21: NBX0718 (VHH)
VHH: QVQLQESGGGLVQAGGSLRLSCAANGRTFSSYAMAWFRQAPGKEREFVAAVGWSGGRTYYTDSVKGRFTISRDNAKDTVYLQMNSLKPEDTAVYYCAATRGWAQATLLYDYDYWGQGTQVTVSS
B22: NBX0751 (VHH)
VHH: QVQLQESGGGLVQPGGSLRLSCAVSGTIFSITPMGWYRQAPGKQRELVASISGGGSTNYTDPVKGRFTISRDKARNTVYLQMNNLKPEDTAVYYCNAASLAIVRGINNYWGQGTQVTVSS
B23: NBX0708 (VHH)
VHH: QVQLQESGGGLVQAGDSLSLSCVDSKRTADRYVMHWFRQVPGKDREFVAAISGNGLVRNYADSVKGRFTISRDNAKNMVYLQMKSLKPEDTAVYYCAADFVLDSRWRYVPYWGQGTQVTVSS
B24: NBX0713 (VHH)
VHH: QVQLQESGGGLVQPGGSLRLSCAASGRTFRRNAMGWFRQAPGKAREFVATISWSGNRAYSDSVKGRFTISRDNGKNLVSLQMNSLKPEDTAVYYCAAARERITSTYYTPHVLTDYDAWGQGAQVTVSS
B25: NBX0732 (VHH)
VHH: B24 VHH with P14T, S52T, G74E, D114E
B26: NBX0715 (VHH)
VHH: B24 VHH with E6Q, P14A, R30S, G74E, Q81H
B27: NBX0712 (VHH)
VHH: B24 VHH with P14T, R30T, T50V, R101A
B28: NBX0750 (VHH)
VHH: QVQLQESGGGLVQPGDSLRLSCAPSGRTFSGYVTGWFRQAPGMEREFVAAITWSGDSTYYADSVKGRFQISRDSAKNTVYLQMNSLKPEDAGVYYCAVKSQTYSTDYVQPRRYAYWGQGTQVTVSS

What follows are binders tested against T1, GST fusion of the EmAMA1-binding peptide of EmRON2 (Eimeria maxima, UniProt P08515 1-218 = GST) (assay: phage ELISA, wells coated with GST-RON2 peptide).
T1 construct: Expressed in E. coli, purified as the other antigens but without TEV cleavage, so a His tag and TEV site probably remain; also called GST-RON2 peptide
T1 sequence (P08515 1-218, tags or fused parts left off): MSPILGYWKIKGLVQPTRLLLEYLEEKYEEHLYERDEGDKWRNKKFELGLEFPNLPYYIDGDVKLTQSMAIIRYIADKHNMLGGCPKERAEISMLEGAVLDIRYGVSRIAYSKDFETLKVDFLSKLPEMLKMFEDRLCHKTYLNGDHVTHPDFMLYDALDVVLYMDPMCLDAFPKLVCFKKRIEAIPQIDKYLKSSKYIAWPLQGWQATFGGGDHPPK

| Binder | binding relative to GST-coated wells [times] | binding relative to PBS-coated wells [times] |
| --- | --- | --- |
| B1 | ≥ 3 | ≥ 4 |
| B2 | ≥ 3 | ≥ 4 |
| B3 | ≥ 3 | ≥ 4 |

Biological target: T2, Eimeria tenella MIC2 (Eimeria tenella)
T2 construct: Recombinant antigen coated on ELISA wells; also called EtMIC2
T2 chain: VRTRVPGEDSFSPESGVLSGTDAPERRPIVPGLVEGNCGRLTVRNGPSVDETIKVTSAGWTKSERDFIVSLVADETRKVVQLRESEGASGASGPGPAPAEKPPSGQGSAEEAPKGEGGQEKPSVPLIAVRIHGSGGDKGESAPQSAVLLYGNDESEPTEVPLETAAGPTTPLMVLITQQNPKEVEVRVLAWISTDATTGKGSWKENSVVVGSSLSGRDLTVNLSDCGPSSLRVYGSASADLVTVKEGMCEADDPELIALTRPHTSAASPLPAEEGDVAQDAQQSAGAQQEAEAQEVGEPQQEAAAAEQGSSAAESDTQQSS
Experiment: phage ELISA, antigen-coated wells;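 further: antigen dissolved in PBS and coated onto wells, with negative-control wells holding PBS alone as the reference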
Excerpt: (§1) Black bars show binding to wells coated with the antigen specified in Tables 1 and 2 dissolved in phosphate-buffered saline (PBS). Grey bars are negative controls that show binding to wells coated with PBS only.

| Binder | binding relative to PBS-coated wells [times] |
| --- | --- |
| B4 | ≥ 4 |
| B5 | ≥ 4 |
| B6 | ≥ 4 |
| B7 | ≥ 4 |
| B8 | ≥ 4 |

Biological target: T3, Eimeria maxima MIC2 (Eimeria maxima)
T3 construct: Recombinant antigen coated on ELISA wells; also called EmMIC2
T3 chain: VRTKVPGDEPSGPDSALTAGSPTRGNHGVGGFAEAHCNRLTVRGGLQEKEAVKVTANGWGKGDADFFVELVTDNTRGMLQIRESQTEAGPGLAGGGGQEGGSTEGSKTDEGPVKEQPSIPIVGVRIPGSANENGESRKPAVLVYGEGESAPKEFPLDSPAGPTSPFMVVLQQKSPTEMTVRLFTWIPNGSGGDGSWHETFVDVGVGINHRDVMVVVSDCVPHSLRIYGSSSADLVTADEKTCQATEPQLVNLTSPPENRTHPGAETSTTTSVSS
Experiment: phage ELISA, antigen-coated wells;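 further: antigen dissolved in PBS and coated onto wells, with negative-control wells holding PBS alone as the reference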
Excerpt: as §1

| Binder | binding relative to PBS-coated wells [times] |
| --- | --- |
| B9 | ≥ 4 |
| B10 | ≥ 4 |
| B11 | ≥ 4 |
| B12 | ≥ 4 |
| B13 | ≥ 4 |
| B14 | ≥ 4 |
| B15 | 4 |
| B16 | ≥ 4 |
| B17 | ≥ 4 |
| B18 | ≥ 4 |
| B19 | ≥ 4 |
| B20 | ≥ 4 |
| B21 | ≥ 4 |
| B22 | ≥ 4 |
| B23 | ≥ 4 |
| B24 | ≥ 4 |
| B25 | ≥ 4 |
| B26 | ≥ 4 |
| B27 | ≥ 4 |
| B28 | ≥ 4 |
